From the Human Domainome abundance scans (Beltran et al. 2025)
± gives the uncertainty stated by the source.

B1: Far upstream element-binding protein 3, residues 75 to 150; numbered along this chain, Q96I24 (parent)
chain: RTVITEEFKVPDKMVGFIIGRGGEQISRIQAESGCKIQIASESSGIPERPCVLTGTPESIEQAKRLLGQIVDRCRN

Variants of: B1
Test: abundance fitness (aPCA) (normalised: wild type 0, dead -1); higher = more abundant; growth selection in yeast, the domain comes from the species named
Conditions: Homo sapiens

Question: For RTVITEEFKVPDKMVGFIIGRGGEQISRIQAESGCKIQIASESSGIPERPCHLTGTPESIEQAKRLLGQIVDRCRN [V52H], which abundance fitness is on record?
Answer: -0.064 ± 0.061

Question: With RTVITEEFKVPDKMVGFIISRGGEQISRIQAESGCKIQIASESSGIPERPCVLTGTPESIEQAKRLLGQIVDRCRN [G20S] as the variant, how does the abundance fitness read?
Answer: -0.151 ± 0.035

Question: For RTVITEEFKVPDKMVGFIIGCGGEQISRIQAESGCKIQIASESSGIPERPCVLTGTPESIEQAKRLLGQIVDRCRN [R21C], which abundance fitness is on record?
Answer: -0.089 ± 0.041

Question: With RTVITEEFKVPDKMVGFIIGVGGEQISRIQAESGCKIQIASESSGIPERPCVLTGTPESIEQAKRLLGQIVDRCRN [R21V] as the variant, how does the abundance fitness read?
Answer: -0.057 ± 0.029

Question: With RTVITEEFKVPDKMVGFIIGRGGEQISRIQAESGCKIQIASESSGIPERPSVLTGTPESIEQAKRLLGQIVDRCRN [C51S] as the variant, how does the abundance fitness read?
Answer: -0.366 ± 0.04

Question: For RTVITEEFKVPDKMVGFIIGRGGEQISRIQAESGCKIQIASESSGIPERPPVLTGTPESIEQAKRLLGQIVDRCRN [C51P], which abundance fitness is on record?
Answer: -0.671 ± 0.066

Question: With RTVITEEFKVPDKMVGFIIGRGGEQISRIQAESGCKIQIASESSGIPERPCVLTGTPESIEQAKRELGQIVDRCRN [L66E] as the variant, how does the abundance fitness read?
Answer: -0.079 ± 0.034

Question: Which abundance fitness does the source give for RTVITEEFKVPDKMVGFIIGRGGEQISRIQAASGCKIQIASESSGIPERPCVLTGTPESIEQAKRLLGQIVDRCRN [E32A] here?
Answer: -0.074 ± 0.034

Question: Which abundance fitness does the source give for RTVITEEFKVPDKMVGFIIGRGGEQISRIQAYSGCKIQIASESSGIPERPCVLTGTPESIEQAKRLLGQIVDRCRN [E32Y] here?
Answer: -0.049 ± 0.059

Question: With RTVITEEFKVPDKMVGFIIGRGGEQISRIQAVSGCKIQIASESSGIPERPCVLTGTPESIEQAKRLLGQIVDRCRN [E32V] as the variant, how does the abundance fitness read?
Answer: -0.073 ± 0.027

Question: For RTVITEEFKVPDKMVGFIIGRGGEQIHRIQAESGCKIQIASESSGIPERPCVLTGTPESIEQAKRLLGQIVDRCRN [S27H], which abundance fitness is on record?
Answer: -0.117 ± 0.066

Question: With RTVITEEFKVPDKMVGFIIGRGGEQISRIQAESGCKIQIASESSGIPERPCVLTGTPESIEQVKRLLGQIVDRCRN [A63V] as the variant, how does the abundance fitness read?
Answer: -0.31 ± 0.031

Question: For RTVITEEFKVPDKMVGFIIGRGGEQISRIQAESGCKIQIASESSGIPNRPCVLTGTPESIEQAKRLLGQIVDRCRN [E48N], which abundance fitness is on record?
Answer: -0.1 ± 0.06

Question: Which abundance fitness does the source give for RTVITEEFKVPDKMVGFIIGRGGEQISRIQAESGCKIQIASESSGIPERPCVLHGTPESIEQAKRLLGQIVDRCRN [T54H] here?
Answer: -0.01 ± 0.079

Question: Which abundance fitness does the source give for RTVITEEFKVPDKMVGFIIGRGGEQISRIQRESGCKIQIASESSGIPERPCVLTGTPESIEQAKRLLGQIVDRCRN [A31R] here?
Answer: -0.005 ± 0.025

Question: Which abundance fitness does the source give for RTVITEEFKVPDKMVGFIIGRGGEQISRIQAESGCKIQIASESSGIPERPCVLTGTPESIEQAKRLLWQIVDRCRN [G68W] here?
Answer: -0.065 ± 0.037

Question: With RTVITEEFKVPDKMVGFIIGRGGEQISRIQAESGCKIQIASESSGIPERPCVLTGTPESIEQAKRLLGQIVDRCRP [N76P] as the variant, how does the abundance fitness read?
Answer: 0.007 ± 0.059

Question: For RTVITEEFKVPDKMVGFIIGRGGEQISRIQAESGCKIQIASESEGIPERPCVLTGTPESIEQAKRLLGQIVDRCRN [S44E], which abundance fitness is on record?
Answer: -0.009 ± 0.034

Question: For RTVITEEFKVPDKMVGFIIGRGGEQISRIQAESGCKIQIASESFGIPERPCVLTGTPESIEQAKRLLGQIVDRCRN [S44F], which abundance fitness is on record?
Answer: -0.06 ± 0.062

Question: With RTVITEEFKVPDKMVGFIIGRGGEQISRIQAESGCKIQIASESIGIPERPCVLTGTPESIEQAKRLLGQIVDRCRN [S44I] as the variant, how does the abundance fitness read?
Answer: -0.07 ± 0.086

Question: With RIVITEEFKVPDKMVGFIIGRGGEQISRIQAESGCKIQIASESSGIPERPCVLTGTPESIEQAKRLLGQIVDRCRN [T2I] as the variant, how does the abundance fitness read?
Answer: 0.038 ± 0.058

Question: With RTVITEEFKVPDKMVGFIIGRGGEQISRIQAESGCKIQIASESSGIYERPCVLTGTPESIEQAKRLLGQIVDRCRN [P47Y] as the variant, how does the abundance fitness read?
Answer: -0.12 ± 0.058

Question: For RTVITEEFKVPDKMVGFIIGRGGEQISRIQAESGCKIQIASESSGIRERPCVLTGTPESIEQAKRLLGQIVDRCRN [P47R], which abundance fitness is on record?
Answer: -0.065 ± 0.025

Question: With RTVITEEFKVKDKMVGFIIGRGGEQISRIQAESGCKIQIASESSGIPERPCVLTGTPESIEQAKRLLGQIVDRCRN [P11K] as the variant, how does the abundance fitness read?
Answer: -0.298 ± 0.053

Question: Which abundance fitness does the source give for RTVITEEFKVPDKMVGFIIGRGGEQISRIQAESGCKIQIASESSGIPERPCVLTGLPESIEQAKRLLGQIVDRCRN [T56L] here?
Answer: -0.138 ± 0.031

Question: With RTVITEEFKVPDKMVGFIIGRGGEQISRIQAESGCKIQIASESSGIPERPCVLTGSPESIEQAKRLLGQIVDRCRN [T56S] as the variant, how does the abundance fitness read?
Answer: -0.013 ± 0.031

Question: With RTVITEEFKVPDKMVGFIIGRGGEQISRIQAESGCKIQIASESSGIPERPCVLTGYPESIEQAKRLLGQIVDRCRN [T56Y] as the variant, how does the abundance fitness read?
Answer: -0.049 ± 0.05

Question: With RTVITEEFKVPDKMVGFIIGRGGEQISRIQAESGCKIQIASESSGIPERPCVLTGTPEGIEQAKRLLGQIVDRCRN [S59G] as the variant, how does the abundance fitness read?
Answer: -0.065 ± 0.028

Question: Which abundance fitness does the source give for RTVITEEFKVPDKMVGFIIGRGGEQISRIQAESGCKIQIASESSGIPERPCVLTGTPESYEQAKRLLGQIVDRCRN [I60Y] here?
Answer: -1 ± 0.12

Question: With RTVIKEEFKVPDKMVGFIIGRGGEQISRIQAESGCKIQIASESSGIPERPCVLTGTPESIEQAKRLLGQIVDRCRN [T5K] as the variant, how does the abundance fitness read?
Answer: -0.068 ± 0.052

Question: Which abundance fitness does the source give for RTVITEEFKVPDKMVGFIIGRGGEQISRIQAESGCKIQSASESSGIPERPCVLTGTPESIEQAKRLLGQIVDRCRN [I39S] here?
Answer: -0.485 ± 0.037

Question: With RTVITEEFKVPDKMVGFIIGRGGEQISRIQAESGCRIQIASESSGIPERPCVLTGTPESIEQAKRLLGQIVDRCRN [K36R] as the variant, how does the abundance fitness read?
Answer: -0.027 ± 0.029

Question: Which abundance fitness does the source give for RTVITEEFKVPDKMVGFIIGRGGEQISRIQAESGCKIQIASPSSGIPERPCVLTGTPESIEQAKRLLGQIVDRCRN [E42P] here?
Answer: -0.037 ± 0.047

Question: Which abundance fitness does the source give for RTVITEEFKVPDKMVGFIIGRGGEQISRIQAESGCKIQIASTSSGIPERPCVLTGTPESIEQAKRLLGQIVDRCRN [E42T] here?
Answer: -0.04 ± 0.041

Question: With RTVITEEFKVPDKMVGFIIGRGGEQISRIQAESGCKIQIASESSGIPERPCVLTGTPESIEQAKRLLGQIVDGCRN [R73G] as the variant, how does the abundance fitness read?
Answer: 0.054 ± 0.029

Question: For RTVITEEFKVPDKMVGFIIGRGGEQISRIQAESGCKIQIASESSGIPERPCVLTGTPESIEQAKRLLGQIVDPCRN [R73P], which abundance fitness is on record?
Answer: -0.001 ± 0.045
